Tests used:
[1] = biological target: digested β-vignin (β-vignin incubated 30 h with the 6 d.a.i. germinating cowpea seed extract): 27 kDa core with the proteolytic products that stay with it (Vigna unguiculata (cowpea)); test: SEC; Superdex 75 10/300 GL, 25 mM phosphate buffer pH 7.0, 150 mM NaCl; β-vignin digested 30 h with the 6 d.a.i. extract, 50 μg loaded; eluted fractions on SDS-PAGE (silver stained); digest not purified from the extract
[2] = biological target: native β-vignin, the vicilin (7S globulin) storage protein of cowpea (Vigna unguiculata) seeds (Vigna unguiculata (cowpea)); test: SEC; Superdex 75 10/300 GL, 25 mM phosphate buffer pH 7.0, 150 mM NaCl, 0.5 mL/min; peak areas by Multiple Peak Fit; monomer to trimer
[3] = biological target: native β-vignin, the vicilin (7S globulin) storage protein of cowpea (Vigna unguiculata) seeds (Vigna unguiculata (cowpea)); test: SEC; Superdex 200 10/300 GL, 25 mM Tris-HCl pH 9.0, 150 mM or 300 mM NaCl; 50 μg β-vignin (0.5 mg/mL) loaded

percent monomer [1]	percent trimer [1]	percent monomer [2]	percent trimer [2]	stoichiometry N [3]	Substance
90.2%	9.8%	–	–	–	digested β-vignin (β-vignin incubated 30 h with the 6 d.a.i. germinating cowpea seed extract): 27 kDa core with the proteolytic products that stay with it (complex)
–	–	80%	20%	3	native β-vignin, the vicilin (7S globulin) storage protein of cowpea (Vigna unguiculata) seeds (natural protein)

From article PMC8746429
